Test results as given in article PMC11093611.

T1: rCf48 (recombinant Flag-Cf48 micropeptide) (mouse, UniProt Q3UR78 29-90)
T1 sequence: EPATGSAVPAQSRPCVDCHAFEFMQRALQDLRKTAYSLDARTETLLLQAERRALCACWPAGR


Molecular target: T1, rCf48 (recombinant Flag-Cf48 …)
Assay: EMSA; Thermo LightShift Chemiluminescent RNA EMSA kit (20158); buffer, salt, pH and temperature not given in the material
Conditions: protein: recombinant; tags: FLAG (Fc tag removed with enterokinase); label: biotin

Row | Binder | binding result
1 | Serpine1 mRNA 3'-most 134 nt WT probe (ssRNA) RNA: CCAAAUGUGGGGUCACAUGGUCUUGAAUUUUGUGGGGUACAUAUGCCUUUGUUUGUUUGUUUUCACUUUUGAUAUAUAAACAGGUAAAUGUGUUUUUAAAAAAUAAUAAAAAUAGAGAAUAUGCAGACAAAAAAA | binds
2 | Acta2 mRNA 3'-most 132 nt WT probe (ssRNA) RNA: GGUGACCAGAUAGGUAAAAAACAAUUUUACGUGUAUUUAAAAUUUGGCAAGUAAUAUGGUUUUAUUAAAAUCACAUCUUUUGUAUUAAAGCAUACACACGUGCAUGGAUAUGCAUGCGUGACUUUUAACUUG | binds
